According to the supplement of paper PMC9233669:
Variants at the floor of the assay were thinned out.

Experiments:
[1] = test system: biotinyl-Phe-oxazolone; assay: self-aminoacylation, catalytic enhancement (BFO) (fold over background); higher = more active; k-Seq, kA / k0A0; sequences stand for … in GGGAAUGGAUCCACAUCUACGAAUUC…UUCACUGCAGACUUGACGAAGCUG
Procedure, shortened: (§1)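 Mutagenized RNA pools with a 21-nt variable region (0.43 μM) were reacted with each biotinyl-aminoacyl-oxazolone at 2–1250 μM for 90 minutes at room temperature, in 50 μL HEPES/NaCl/KCl/MgCl2/CaCl2 buffer containing 5% acetonitrile at pH 6.9–7.0. RNA captured on streptavidin was quantified by triplicate qPCR and by Illumina sequencing. The fraction reacted for each sequence was fit to a pseudo-first-order model with bootstrapping, and catalytic enhancement is the median kA divided by the uncatalyzed rate, taken as the low-activity peak of a bimodal Gaussian fit.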

[2] = test system: biotinyl-Ile-oxazolone; assay: self-aminoacylation, catalytic enhancement (BIO) (fold over background); higher = more active; k-Seq, kA / k0A0; sequences stand for … in GGGAAUGGAUCCACAUCUACGAAUUC…UUCACUGCAGACUUGACGAAGCUG
Procedure, shortened: as §1

[3] = test system: biotinyl-Met-oxazolone; assay: self-aminoacylation, catalytic enhancement (BMO) (fold over background); higher = more active; k-Seq, kA / k0A0; sequences stand for … in GGGAAUGGAUCCACAUCUACGAAUUC…UUCACUGCAGACUUGACGAAGCUG
Procedure, shortened: as §1

[4] = test system: biotinyl-Val-oxazolone; assay: self-aminoacylation, catalytic enhancement (BVO) (fold over background); higher = more active; k-Seq, kA / k0A0; sequences stand for … in GGGAAUGGAUCCACAUCUACGAAUUC…UUCACUGCAGACUUGACGAAGCUG
Procedure, shortened: as §1

[5] = test system: biotinyl-Leu-oxazolone; assay: self-aminoacylation, catalytic enhancement (BLO) (fold over background); higher = more active; k-Seq, kA / k0A0; sequences stand for … in GGGAAUGGAUCCACAUCUACGAAUUC…UUCACUGCAGACUUGACGAAGCUG
Procedure, shortened: as §1

[6] = test system: biotinyl-Trp-oxazolone; assay: self-aminoacylation, catalytic enhancement (BWO) (fold over background); higher = more active; k-Seq, kA / k0A0; sequences stand for … in GGGAAUGGAUCCACAUCUACGAAUUC…UUCACUGCAGACUUGACGAAGCUG
Procedure, shortened: as §1

Sequence	self-aminoacylation [1]	self-aminoacylation [2]	self-aminoacylation [3]	self-aminoacylation [4]	self-aminoacylation [5]	self-aminoacylation [6]
CCACACGUCAAGCAUUCGGUC [Fam1B.1 aminoacylation ribozyme variant]	5.03	2.03	2.23	3.21	1.71	2.16
CCACACGUCACGCAAUCGGUC [Fam1B.1 aminoacylation ribozyme variant]	3.73	1.58	2.03	2.16	1.84	1.95
CCACACGUUAAGCAAUCGGUC [Fam1B.1 aminoacylation ribozyme variant]	1.05	1.09	0.992	1.15	0.93	0.931
CCACACUACAAGCAAUCGGCC [Fam1B.1 aminoacylation ribozyme variant]	1.99	2.44	2.7	2.06	1.57	1.78
CCACACUACUAGCAAUCGGUC [Fam1B.1 aminoacylation ribozyme variant]	0.743	0.798	0.694	0.753	0.71	0.623
CCACACUCCAAGCAACCGGUC [Fam1B.1 aminoacylation ribozyme variant]	0.853	1.24	0.814	1.44	1.19	0.654
CCACACUCCAUGCAAUCGGUC [Fam1B.1 aminoacylation ribozyme variant]	0.866	0.982	0.676	1.05	0.901	0.663
CCACACUGCAAGCAACCGGUC [Fam1B.1 aminoacylation ribozyme variant]	0.966	1.53	1.49	1.79	1.25	1.07
CCACACUGCAAGCAAGCGGUC [Fam1B.1 aminoacylation ribozyme variant]	1.05	1.34	0.878	1.61	1.23	1
CCACACUGCAAGCAAUUGGUC [Fam1B.1 aminoacylation ribozyme variant]	0.969	1.14	0.87	0.956	0.961	0.59
CCACACUGCAAGCAUUCGGUC [Fam1B.1 aminoacylation ribozyme variant]	8.26	2.37	2.04	2.96	2.58	3.51
CCACACUGCGAGCAAUCGGUC [Fam1B.1 aminoacylation ribozyme variant]	3.33	1.21	1.07	1.51	1.25	1.21
CCACACUUAAAGCAAUCGGUU [Fam1B.1 aminoacylation ribozyme variant]	0.794	1.08	0.896	1.15	0.849	0.916
CCACACUUAAAGCAGUCGGUC [Fam1B.1 aminoacylation ribozyme variant]	0.946	1.08	0.942	0.872	0.985	0.621
CCACACUUAAAGCUAUCGGUC [Fam1B.1 aminoacylation ribozyme variant]	0.762	1.03	0.887	1.1	0.915	0.89
CCACACUUAAAGUAAUCGGUC [Fam1B.1 aminoacylation ribozyme variant]	0.772	0.82	0.695	0.836	0.744	0.875
CCACACUUAACGCAAUCGGUC [Fam1B.1 aminoacylation ribozyme variant]	0.826	1.08	0.874	1.11	0.986	1.11
CCACACUUCAAACAAUAGGUC [Fam1B.1 aminoacylation ribozyme variant]	0.995	0.617	0.435	0.656	0.471	0.652
CCACACUUCAAACAAUCGGAC [Fam1B.1 aminoacylation ribozyme variant]	3.27	1.01	0.88	1	0.951	1.94
CCACACUUCAAACAAUCGGUG [Fam1B.1 aminoacylation ribozyme variant]	4.88	2.96	4.77	3.01	6.19	4.19
CCACACUUCAAACAAUCGGUU [Fam1B.1 aminoacylation ribozyme variant]	29.6	1.91	1.93	2.17	2.57	21.5
CCACACUUCAAACAAUUGGUC [Fam1B.1 aminoacylation ribozyme variant]	1.55	0.737	0.659	0.59	0.588	1
CCACACUUCAAACAGUCGGUC [Fam1B.1 aminoacylation ribozyme variant]	1.09	0.75	0.735	0.945	0.622	0.848
CCACACUUCAAACUAUCGGUC [Fam1B.1 aminoacylation ribozyme variant]	1.09	0.976	0.781	0.909	0.83	0.882
CCACACUUCAACCAAACGGUC [Fam1B.1 aminoacylation ribozyme variant]	0.797	0.872	0.628	0.846	0.729	0.727
CCACACUUCAACCAAUGGGUC [Fam1B.1 aminoacylation ribozyme variant]	0.603	0.685	0.499	0.759	0.593	0.377

Sequence	self-aminoacylation [1]	self-aminoacylation [2]	self-aminoacylation [3]	self-aminoacylation [4]	self-aminoacylation [5]	self-aminoacylation [6]
CCACACUUCAACUAAUCGGUC [Fam1B.1 aminoacylation ribozyme variant]	22.8	0.859	0.753	0.925	1.04	11.6
CCACACUUCAAGAAAUCGGCC [Fam1B.1 aminoacylation ribozyme variant]	3.48	1.96	1.97	2.16	1.78	3.06
CCACACUUCAAGAAAUCGUUC [Fam1B.1 aminoacylation ribozyme variant]	0.735	0.472	0.482	0.602	0.529	0.399
CCACACUUCAAGAACUCGGUC [Fam1B.1 aminoacylation ribozyme variant]	0.548	0.836	0.696	1.01	1.01	0.586
CCACACUUCAAGCAAAAGGUC [Fam1B.1 aminoacylation ribozyme variant]	1.05	0.598	0.434	0.721	0.524	0.598
CCACACUUCAAGCAAACGCUC [Fam1B.1 aminoacylation ribozyme variant]	0.677	0.956	1.41	0.912	1.01	1.37
CCACACUUCAAGCAACCGAUC [Fam1B.1 aminoacylation ribozyme variant]	1.05	0.665	0.559	0.684	0.45	0.75
CCACACUUCAAGCAACCGGUC [Fam1B.1 aminoacylation ribozyme variant]	1.31	0.933	0.783	1.01	0.721	0.935
CCACACUUCAAGCAACGGGUC [Fam1B.1 aminoacylation ribozyme variant]	0.777	0.624	0.626	0.81	0.569	0.464
CCACACUUCAAGCAACUGGUC [Fam1B.1 aminoacylation ribozyme variant]	0.699	0.57	0.52	0.616	0.505	0.338
CCACACUUCAAGCAAGCGGCC [Fam1B.1 aminoacylation ribozyme variant]	0.898	2.38	2.63	2.96	3.28	1.46
CCACACUUCAAGCAAGCGGUC [Fam1B.1 aminoacylation ribozyme variant]	0.769	0.87	0.791	0.961	0.785	0.62
CCACACUUCAAGCAAUAGCUC [Fam1B.1 aminoacylation ribozyme variant]	0.859	0.691	0.708	0.816	0.941	0.427
CCACACUUCAAGCAAUCACUC [Fam1B.1 aminoacylation ribozyme variant]	0.957	0.591	0.509	0.669	0.43	0.564
CCACACUUCAAGCAAUCCGUU [Fam1B.1 aminoacylation ribozyme variant]	0.872	1.4	1.31	1.27	1.27	1.45
CCACACUUCAAGCAAUCGAAC [Fam1B.1 aminoacylation ribozyme variant]	0.953	0.557	0.402	0.76	0.41	0.578
CCACACUUCAAGCAAUCGCUC [Fam1B.1 aminoacylation ribozyme variant]	1.2	1.33	1.3	1.44	1.27	1.29
CCACACUUCAAGCAAUCGGAG [Fam1B.1 aminoacylation ribozyme variant]	0.817	0.874	0.743	1.16	0.591	1.03
CCACACUUCAAGCAAUCGUAC [Fam1B.1 aminoacylation ribozyme variant]	1.29	0.473	0.351	0.669	0.58	0.546
CCACACUUCAAGCAAUCUCUC [Fam1B.1 aminoacylation ribozyme variant]	0.826	0.61	0.514	0.669	0.385	0.383
CCACACUUCAAGCAAUCUGGC [Fam1B.1 aminoacylation ribozyme variant]	0.94	0.851	0.71	0.861	0.804	0.834
CCACACUUCAAGCAAUGGGUA [Fam1B.1 aminoacylation ribozyme variant]	0.907	1.35	1.39	1.4	1.31	1.35
CCACACUUCAAGCAAUGGGUC [Fam1B.1 aminoacylation ribozyme variant]	0.841	0.78	0.677	0.793	0.677	0.627
CCACACUUCAAGCAAUGGUUC [Fam1B.1 aminoacylation ribozyme variant]	0.776	0.619	0.61	0.574	0.596	0.678
CCACACUUCAAGCAAUUGGGC [Fam1B.1 aminoacylation ribozyme variant]	1	1.79	2.12	1.98	2.16	2.98
